According to paper doi:10.1101/2020.08.17.254201:

Assays:
[1] = target: SgEsaA_(332-725) (Streptococcus gallolyticus ATCC 43143); assay: SEC-MALS
[2] = target: SiEsaA_(328-685), fragment of Streptococcus intermedius B196 EsaA (Streptococcus intermedius B196); assay: SEC-MALS

Substance	stoichiometry N [1]	stoichiometry N [2]
SgEsaA_(332-725) (domain or fragment)	2	–
SiEsaA_(328-685), fragment of Streptococcus intermedius B196 EsaA (domain or fragment)	–	2
